Common to all, as to experiment: holdup assay
Common to all, as to parameters: key: below the threshold = too weak to quantify, mostly under pKd 3.1 to 4
Common to all, as to details: plain residues with an end cap or a label only (N-terminal biotin on a linker: ado-ado)

For assay [1], the target named is T1, HTRA4, P83105.
T1 sequence (P83105 378-476, limits assumed, looked up): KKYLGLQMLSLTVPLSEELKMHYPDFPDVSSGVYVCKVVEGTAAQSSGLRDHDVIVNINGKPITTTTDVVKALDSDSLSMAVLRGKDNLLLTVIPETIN

Assay [2] has as its target GRIP2_6, Q9C0E4.
Assay [3] has as its target GRIP2_3, Q9C0E4.
Assay [4] deals with PARD3_3, Q8TEW0.
PARD3_3, Q8TEW0, sequence (Q8TEW0 582-685): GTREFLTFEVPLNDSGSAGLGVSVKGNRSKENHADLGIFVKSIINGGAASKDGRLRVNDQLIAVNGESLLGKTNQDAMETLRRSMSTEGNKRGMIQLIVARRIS
The target of assay [5] is NOS1, P29475.
NOS1, P29475, sequence (P29475 9-101): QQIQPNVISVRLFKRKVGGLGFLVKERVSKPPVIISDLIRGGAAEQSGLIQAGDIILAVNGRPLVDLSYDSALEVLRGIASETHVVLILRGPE
In assay [6] the target is T2, PDZD2_2, O15018.
T2 sequence (O15018 329-429, limits assumed, looked up): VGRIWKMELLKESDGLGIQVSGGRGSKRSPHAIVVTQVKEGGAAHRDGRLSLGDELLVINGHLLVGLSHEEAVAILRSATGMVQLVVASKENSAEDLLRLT

For assay [7], the target named is MAGI1_2, Q96QZ7.
MAGI1_2, Q96QZ7, sequence (Q96QZ7 456-580): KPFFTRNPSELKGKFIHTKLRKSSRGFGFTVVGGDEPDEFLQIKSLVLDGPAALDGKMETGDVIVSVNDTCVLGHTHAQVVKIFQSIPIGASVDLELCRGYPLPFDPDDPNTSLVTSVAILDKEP
Assay [8] concerns the target T3, RAPGEF6, Q8TEU7.
T3 sequence (Q8TEU7 525-625, limits assumed, looked up): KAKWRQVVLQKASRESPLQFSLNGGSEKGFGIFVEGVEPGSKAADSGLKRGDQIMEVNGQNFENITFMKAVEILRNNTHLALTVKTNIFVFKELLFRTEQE

In assay [9] the target is T4, LNX2_3, Q8N448.
T4 sequence (Q8N448 463-564, limits assumed, looked up): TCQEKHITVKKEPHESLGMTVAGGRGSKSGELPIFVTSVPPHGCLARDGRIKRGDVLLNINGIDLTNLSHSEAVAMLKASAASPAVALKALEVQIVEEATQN

Assay [10] concerns the target T5, LNX2_2, Q8N448.
T5 sequence (Q8N448 334-432, limits assumed, looked up): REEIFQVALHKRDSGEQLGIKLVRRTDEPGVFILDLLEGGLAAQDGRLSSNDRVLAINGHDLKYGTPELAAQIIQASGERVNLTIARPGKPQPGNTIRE

Assay [11] addresses T6, DVL3, Q92997.
T6 sequence (Q92997 244-331, limits assumed, looked up): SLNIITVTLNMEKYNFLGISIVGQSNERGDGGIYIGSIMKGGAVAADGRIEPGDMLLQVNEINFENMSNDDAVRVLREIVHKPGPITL

For assay [12], the target named is T7, PDZRN3_1, Q9UPQ7.
T7 sequence (Q9UPQ7 244-349, limits assumed, looked up): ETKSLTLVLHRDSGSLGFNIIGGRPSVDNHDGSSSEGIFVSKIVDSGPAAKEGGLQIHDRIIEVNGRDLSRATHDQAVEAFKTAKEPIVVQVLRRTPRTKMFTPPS

The target in assay [13] is MAGI2_5, Q86UL8.
MAGI2_5, Q86UL8, sequence (Q86UL8 915-1017): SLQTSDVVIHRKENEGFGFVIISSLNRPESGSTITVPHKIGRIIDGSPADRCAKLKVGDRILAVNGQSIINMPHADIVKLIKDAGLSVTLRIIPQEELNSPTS
Assay [14] deals with LNX1_3, Q8TBB1.
LNX1_3, Q8TBB1, sequence (Q8TBB1 500-596): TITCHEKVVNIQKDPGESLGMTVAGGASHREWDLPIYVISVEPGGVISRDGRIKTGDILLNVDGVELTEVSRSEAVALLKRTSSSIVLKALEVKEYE
The target of assay [15] is Inadl_3, Q8NI35.
Inadl_3, Q8NI35, sequence (Q8NI35 359-469): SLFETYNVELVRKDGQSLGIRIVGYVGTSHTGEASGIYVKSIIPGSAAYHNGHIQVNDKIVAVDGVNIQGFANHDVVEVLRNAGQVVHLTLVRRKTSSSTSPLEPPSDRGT
Assay [16] addresses T8, GRIP1_4, Q9Y3R0.
T8 sequence (Q9Y3R0 467-571, limits assumed, looked up): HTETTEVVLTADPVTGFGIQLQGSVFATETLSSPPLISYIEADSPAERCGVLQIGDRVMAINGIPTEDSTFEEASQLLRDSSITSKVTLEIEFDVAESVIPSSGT

Assay [17] has as its target T9, PTPN13_1, Q12923.
T9 sequence (Q12923 1088-1188, limits assumed, looked up): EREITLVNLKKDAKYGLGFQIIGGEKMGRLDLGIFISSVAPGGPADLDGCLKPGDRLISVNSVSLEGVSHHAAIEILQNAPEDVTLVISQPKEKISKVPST

The target in assay [18] is LIMK2, P53671.
LIMK2, P53671, sequence (P53671 143-248): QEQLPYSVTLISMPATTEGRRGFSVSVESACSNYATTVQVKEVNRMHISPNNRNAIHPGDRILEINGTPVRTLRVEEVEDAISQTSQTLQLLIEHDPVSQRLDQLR
In assay [19] the target is T10, FRMPD1, Q5SYB0.
T10 sequence (Q5SYB0 52-145, limits assumed, looked up): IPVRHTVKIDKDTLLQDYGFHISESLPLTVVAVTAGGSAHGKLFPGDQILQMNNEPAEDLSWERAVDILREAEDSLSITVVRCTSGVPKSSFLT

In assay [20] the target is T11, CARD11, Q9BXL7.
T11 sequence (Q9BXL7 662-765, limits assumed, looked up): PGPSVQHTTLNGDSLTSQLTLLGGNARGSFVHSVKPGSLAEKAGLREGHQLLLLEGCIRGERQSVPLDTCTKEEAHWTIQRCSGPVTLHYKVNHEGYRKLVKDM

The target of assay [21] is SNX27, Q96L92.
Assay [22] deals with DLG5_1, Q8TDM6.
DLG5_1, Q8TDM6, sequence (Q8TDM6 617-713): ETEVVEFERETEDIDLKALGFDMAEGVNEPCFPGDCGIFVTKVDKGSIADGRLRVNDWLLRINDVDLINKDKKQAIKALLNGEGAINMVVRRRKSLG
The target in assay [23] is GRID2IP_2, A4D2P6.
GRID2IP_2, A4D2P6, sequence (A4D2P6 272-370): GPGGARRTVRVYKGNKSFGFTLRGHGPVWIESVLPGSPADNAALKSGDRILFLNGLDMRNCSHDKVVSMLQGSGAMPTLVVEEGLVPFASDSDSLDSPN
Assay [24] addresses NHERF4_2, Q86UT5.
The target of assay [25] is GORASP1, Q9BQQ3.
GORASP1, Q9BQQ3, sequence (Q9BQQ3 1-208): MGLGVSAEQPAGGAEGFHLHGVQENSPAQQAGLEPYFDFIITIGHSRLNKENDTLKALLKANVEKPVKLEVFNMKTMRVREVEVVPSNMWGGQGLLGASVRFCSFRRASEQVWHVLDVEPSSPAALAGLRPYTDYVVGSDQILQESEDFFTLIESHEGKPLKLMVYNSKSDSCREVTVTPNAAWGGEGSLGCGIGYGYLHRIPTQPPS
The target in assay [26] is T12, ARHGEF11, O15085.
T12 sequence (O15085 42-136, limits assumed, looked up): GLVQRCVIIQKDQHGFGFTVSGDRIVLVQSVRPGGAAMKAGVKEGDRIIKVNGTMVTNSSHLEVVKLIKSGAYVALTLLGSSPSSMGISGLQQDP

The pKd is the Kd on a negative log10 scale, so that one unit is a factor of ten.

NHERF4_2, Q86UT5, sequence (Q86UT5 220-308): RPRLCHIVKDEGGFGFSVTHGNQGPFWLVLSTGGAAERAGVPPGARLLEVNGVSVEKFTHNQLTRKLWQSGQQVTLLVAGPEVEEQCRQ
GRIP2_6, Q9C0E4, sequence (Q9C0E4 648-740): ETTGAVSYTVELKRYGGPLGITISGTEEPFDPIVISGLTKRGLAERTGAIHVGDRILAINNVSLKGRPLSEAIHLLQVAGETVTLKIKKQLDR
GRIP2_3, Q9C0E4, sequence (Q9C0E4 238-339): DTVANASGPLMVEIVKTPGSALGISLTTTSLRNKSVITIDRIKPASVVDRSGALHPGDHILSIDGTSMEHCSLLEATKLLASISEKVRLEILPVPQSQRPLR

As to IDESKKEWLI [CNTNAP2, Q9UHC6], the pKd result was “below the threshold” in [1]; 3.57 in [2]; “below the threshold” in assay [3]; 5.28 in assay [4]; 4.21 in assay [5]; 4.54 in assay [6]. Besides, the pKd entry in assay [7] was “below the threshold”; in assay [8] it was “below the threshold”; in assay [9] it was “below the threshold”; in assay [10], 4.77; in assay [11], 3.85; in assay [12], “below the threshold”. Besides, the negative logarithm of the Kd (pKd) result in assay [13] is “below the threshold”; in [14], “below the threshold”; in [15] it was 5.46; in assay [16], “below the threshold”; in [17], “below the threshold”; in [18], “below the threshold”. Besides, the negative-log Kd (pKd) entry in assay [19], in [20], in [21], in [22], in assay [23] and in assay [24] was “below the threshold” each time. Further, the negative-log Kd (pKd) in [25] was 4.25; in assay [26] it was “below the threshold”.
Turning to KRPEMTSSSV [MUC3A, MUC3B, Q02505;Q9H195], the pKd result in assay [1], in assay [2], in assay [3], in assay [4], in assay [9] and in [11] was “below the threshold” in each case. Also, the pKd entry in assay [14] was “below the threshold”; in [15], “below the threshold”; in [20], 1.75; in assay [23], 3.73; in assay [24], “below the threshold”; in [25], “below the threshold”. Besides, the pKd in assay [26] was determined as 3.74.
Regarding SRSVVESDEL [MYPN, Q86TC9], the pKd result in assay [1] is “below the threshold”; in assay [2] it was 3.95; in assay [3], “below the threshold”; in assay [4], “below the threshold”; in [5], “below the threshold”; in [6], “below the threshold”. For the same molecule, the pKd result in assay [7], in assay [8], in assay [9], in assay [10], in assay [11] and in assay [12] was “below the threshold” throughout. Besides, the negative logarithm of the Kd (pKd) in assay [13] is 3.95; in [14] it was “below the threshold”; in assay [15] it was “below the threshold”; in assay [16], “below the threshold”; in [17], “below the threshold”; in [18] it was “below the threshold”. In addition, the pKd entry in assay [19] is “below the threshold”; in assay [20], “below the threshold”; in assay [21], 4.17; in assay [22], “below the threshold”; in assay [23], “below the threshold”; in assay [24], “below the threshold”. The negative-log Kd (pKd) result in assay [25] is “below the threshold”; in assay [26] it was 3.74.
Take DTKNYKQTSV [CRIPT, Q9P021]: the pKd in assay [1] is 3.95; in [2], 3.52; in assay [3], “below the threshold”; in [4] it was “below the threshold”; in assay [5] it was 3.63; in assay [6] it was 4.76. In addition, the pKd is 4.32 in [7]; “below the threshold” in [8]; “below the threshold” in assay [9]; 3.66 in assay [10]; “below the threshold” in [11]; 4.12 in assay [12]. The pKd in [13] was 4.26; in assay [14], “below the threshold”; in assay [15] it was “below the threshold”; in assay [16] it was “below the threshold”; in assay [17] it was “below the threshold”; in [18], “below the threshold”. Besides, the pKd result was “below the threshold” in [19]; “below the threshold” in assay [20]; 5.33 in assay [21]; “below the threshold” in [22]; 4.39 in assay [23]; “below the threshold” in [24]. The pKd entry was “below the threshold” in assay [25] and 4.12 in assay [26].
For KSRVAFFEEL [NF2, P35240;P35240-1], the pKd was 4.4 in assay [1]; “below the threshold” in [3]; “below the threshold” in assay [8]; “below the threshold” in assay [9]; “below the threshold” in assay [10]; “below the threshold” in [13]. Further, the pKd in [15] is 4.28; in [16], “below the threshold”; in [17], “below the threshold”; in [18], “below the threshold”; in assay [19], “below the threshold”; in [20], “below the threshold”. Besides, the pKd result is “below the threshold” in assay [22], 4.06 in assay [25] and 4.32 in assay [26].

The values are drawn from PMC9482650, “Quantitative fragmentomics allow affinity mapping of interactomes” (Nature Communications, 2022).
